Data taken from paper PMC3359990.

Biological target: TbRIF5-BB2-HA (T. brucei)
Assay: co-IP; cytoplasmic extracts of cells expressing TbDCL1-BB2-FLAG and TbRIF5-BB2-HA; immunoprecipitation with anti-FLAG or anti-HA antibody; Western blot for the common BB2 epitope

TbDCL1-BB2-FLAG (enzyme)
percent of TbDCL1 in the precipitate: 50%
